Measured values as given in patent publication US11419948B2, “Functionalized microgels with fibrin binding elements” (Georgia Tech Research Corporation, priority 2013, dated 2022).

Columns and labels:
fibrinogen = biological target: T1, fibrinogen (Homo sapiens, UniProt P02671+P02675+P02679); assay: ELISAs of H6 binding to fibrinogen in various states of unfolding
T1 sequence (P02671 20-629 limits assumed): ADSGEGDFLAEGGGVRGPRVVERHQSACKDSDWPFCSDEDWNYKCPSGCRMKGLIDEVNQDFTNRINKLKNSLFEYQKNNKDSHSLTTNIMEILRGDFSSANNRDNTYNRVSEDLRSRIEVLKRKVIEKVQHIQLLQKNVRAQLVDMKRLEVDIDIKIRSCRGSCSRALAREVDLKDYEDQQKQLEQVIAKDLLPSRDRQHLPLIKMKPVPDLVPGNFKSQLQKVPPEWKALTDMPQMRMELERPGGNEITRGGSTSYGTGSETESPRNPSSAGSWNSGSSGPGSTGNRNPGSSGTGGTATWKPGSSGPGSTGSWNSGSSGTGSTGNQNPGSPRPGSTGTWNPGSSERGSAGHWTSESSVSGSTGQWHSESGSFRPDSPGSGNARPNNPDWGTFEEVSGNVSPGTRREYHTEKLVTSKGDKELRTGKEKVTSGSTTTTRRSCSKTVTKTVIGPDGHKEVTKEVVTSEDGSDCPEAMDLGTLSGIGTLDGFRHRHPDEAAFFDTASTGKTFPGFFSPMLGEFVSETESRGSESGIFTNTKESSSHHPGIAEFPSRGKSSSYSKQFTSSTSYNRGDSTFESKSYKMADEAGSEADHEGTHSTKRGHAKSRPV
T1 sequence (P02675 31-491): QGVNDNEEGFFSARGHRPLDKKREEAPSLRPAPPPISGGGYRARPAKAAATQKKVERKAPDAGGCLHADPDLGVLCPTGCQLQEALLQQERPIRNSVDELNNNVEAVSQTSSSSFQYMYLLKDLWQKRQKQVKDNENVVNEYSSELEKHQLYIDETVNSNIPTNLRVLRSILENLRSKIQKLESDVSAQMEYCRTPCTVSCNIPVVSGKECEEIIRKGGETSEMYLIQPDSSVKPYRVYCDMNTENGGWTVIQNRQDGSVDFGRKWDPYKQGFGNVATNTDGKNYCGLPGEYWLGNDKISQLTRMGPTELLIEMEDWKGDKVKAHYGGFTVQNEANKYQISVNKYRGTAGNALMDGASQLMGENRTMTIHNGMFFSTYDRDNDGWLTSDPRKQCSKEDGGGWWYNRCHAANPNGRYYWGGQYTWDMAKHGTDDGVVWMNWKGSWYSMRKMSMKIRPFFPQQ
T1 sequence (P02679 27-453): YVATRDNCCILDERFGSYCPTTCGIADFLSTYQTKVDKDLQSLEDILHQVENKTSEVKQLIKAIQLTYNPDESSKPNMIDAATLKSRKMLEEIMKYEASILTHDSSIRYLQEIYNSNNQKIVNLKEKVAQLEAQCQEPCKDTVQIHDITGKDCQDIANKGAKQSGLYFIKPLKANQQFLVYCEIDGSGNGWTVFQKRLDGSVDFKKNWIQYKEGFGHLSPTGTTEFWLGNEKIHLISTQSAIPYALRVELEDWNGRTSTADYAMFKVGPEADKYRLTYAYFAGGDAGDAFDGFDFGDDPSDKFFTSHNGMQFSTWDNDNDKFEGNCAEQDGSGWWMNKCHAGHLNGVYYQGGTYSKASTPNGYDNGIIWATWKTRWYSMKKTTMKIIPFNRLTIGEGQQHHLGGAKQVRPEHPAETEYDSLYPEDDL
Method: Characterization of H6 binding to fibrin was determined through a series of experiments designed to test the ability of H6 to bind fibrinogen in various states of unfolding.
In the first experiment ELISAs, as described previously, were performed comparing the ability of H6 to bind fibrinogen that was either passively adsorbed to a glass surface or immobilized to a glass surface, the assumption being that fibrinogen exists in a more unfolded state when adsorbed in comparison to when its immobilized on a surface.
This experiment was repeated comparing the ability of H6 to bind fibrinogen passively adsorbed to a plastic surface after having been heat-denatured, or not, with the assumption being that heat-denatured fibrinogen exists in a more unfolded state than that of fibrinogen that was not heat-denatured.
Finally, this experiment was repeated to compare the ability of H6 to bind fibrinogen that was passively adsorbed after no treatment, heat denaturing, heat denaturing plus reduction of sulfide bonds, or just reduction of sulfide bonds. The assumption is that reduction of sulfide bonds within a fibrinogen molecule in addition to heat denaturing result in an even greater extent of molecular unfolding than compared to heat denaturing alone.

fibrin D-Dimers = biological target: T2, fibrin D-Dimers (Homo sapiens, UniProt P02671+P02675+P02679, DEL433-453); assay: ELISA against adsorbed fibrin D-Dimers; type: binding; conditions: D-Dimer dilutions
T2 construct: ELISAs against plates coated with adsorbed fibrin D-Dimers or E Regions
T2 sequence (P02671 130-216 limits assumed): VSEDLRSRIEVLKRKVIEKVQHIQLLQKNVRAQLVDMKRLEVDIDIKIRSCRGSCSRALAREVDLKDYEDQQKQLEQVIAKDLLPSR
T2 sequence (P02675 164-491 limits assumed): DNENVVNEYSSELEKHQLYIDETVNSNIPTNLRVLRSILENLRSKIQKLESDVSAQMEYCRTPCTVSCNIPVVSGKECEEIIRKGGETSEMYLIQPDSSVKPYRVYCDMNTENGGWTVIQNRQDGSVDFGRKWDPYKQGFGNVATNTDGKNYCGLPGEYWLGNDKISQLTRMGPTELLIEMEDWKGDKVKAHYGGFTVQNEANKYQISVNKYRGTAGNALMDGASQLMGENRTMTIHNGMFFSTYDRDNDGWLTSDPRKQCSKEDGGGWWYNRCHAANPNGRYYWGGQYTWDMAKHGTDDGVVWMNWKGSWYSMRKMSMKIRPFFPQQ
T2 sequence (P02679 114-432 limits assumed): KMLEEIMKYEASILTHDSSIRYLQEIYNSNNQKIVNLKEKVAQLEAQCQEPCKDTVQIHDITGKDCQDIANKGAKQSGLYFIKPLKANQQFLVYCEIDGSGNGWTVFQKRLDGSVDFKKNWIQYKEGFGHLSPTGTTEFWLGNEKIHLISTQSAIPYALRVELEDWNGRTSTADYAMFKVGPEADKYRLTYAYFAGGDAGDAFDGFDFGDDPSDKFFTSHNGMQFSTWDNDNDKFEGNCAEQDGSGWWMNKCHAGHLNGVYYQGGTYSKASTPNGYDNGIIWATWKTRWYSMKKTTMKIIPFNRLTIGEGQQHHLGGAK
Method: This was determined through ELISAs against plates coated with adsorbed fibrin D-Dimers or E Regions.
ELISA set-up and analysis was identical to that performed for the plasma-binding ELISA, the main exception being a substitution of human plasma dilutions for D-Dimer or E Region dilutions adsorbed to the 96-well plates. Both D-Dimer and […]

B1: H6: fibrin-specific human sdFv clone from phage biopanning, SEQ ID NO: 1 (protein)
VHH: QVQLLESGGGLVQPGGSLRLSCAASGDRFTHNDMGWVRQAPGKGLEWVSTIPTTDGSTYYADSVKGRFTISRDNSKSTLYLQMNSLRAEDTAVYYCATGYMWKAPAYVKYWGQGTLVTVSSAAAEQKLISEEDLNSAAHYTDIG
fibrinogen; adsorbed and immobilized fibrinogen
  binding to fibrinogen on glass surface: weak
fibrinogen; glass surface
  binding to immobilized versus adsorbed fibrinogen: dose-dependent decrease in binding
fibrinogen; heat-denatured or not
  binding to fibrinogen adsorbed to plastic surface: weak binding
fibrinogen; no treatment, heat denaturing, reduction of sulfide bonds, or both
  binding to fibrinogen versus degree of unfolding: positively correlated to the degree of unfolding
fibrinogen; plastic surface
  binding to heat-denatured versus un-denatured fibrinogen: dose-dependent enhanced ability
Fibrin D-Dimers
  binding to D-Dimer: negligible binding
